Reference: patent US20180155451A1 (published 2018)

T1: FcγRIIa R (extracellular domain with a His tag at the C terminus) (human, UniProt P12318 34-217)
T1 construct: extracellular domain; expressed in FreeStyle293 cells; also called FcgRIIa R; FcγRIIa type R; not shown: His tag at the C terminus
T1 sequence (looked up): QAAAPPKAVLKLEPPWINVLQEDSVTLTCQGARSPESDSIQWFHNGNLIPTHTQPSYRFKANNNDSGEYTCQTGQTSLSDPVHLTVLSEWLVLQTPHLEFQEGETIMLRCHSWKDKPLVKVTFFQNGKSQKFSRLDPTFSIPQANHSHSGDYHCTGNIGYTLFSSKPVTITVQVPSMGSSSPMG

B1: GpH7-A5/GpH7-B3 variant P331_02A/GpL16-k0 (antibody, human IgG1, kappa)
heavy 1: not shown
heavy 2: not shown
light: DIVMTQSPLSLPVTPGEPASISCQASESLVHSNRNTYLHWYLQKPGQSPQLLIYKVSNRFSGVPDRFSGSGSGTDFTLKISRVEAEDVGVYYCSQNTHVPPTFGQGTKVEIERTVAAPSVFIFPPSDEQLKSGTASVVCLLNNFYPREAKVQWKVDNALQSGNSQESVTEQDSKDSTYSLSSTLTLSKADYEKHKVYACEVTHQGLSSPVTKSFNRGEC
notes: heterodimerized; mutation in one H chain; also called He Ab
B2: GpH7-A5/GpH7-B3 variant S337_20W/GpL16-k0 (antibody, human IgG1, kappa)
heavy 1: not shown
heavy 2: not shown
light: B1 light
notes: as for B1
B3: GpH7-B3 variant E269_04F/GpL16-k0 (antibody, human IgG1, kappa)
heavy: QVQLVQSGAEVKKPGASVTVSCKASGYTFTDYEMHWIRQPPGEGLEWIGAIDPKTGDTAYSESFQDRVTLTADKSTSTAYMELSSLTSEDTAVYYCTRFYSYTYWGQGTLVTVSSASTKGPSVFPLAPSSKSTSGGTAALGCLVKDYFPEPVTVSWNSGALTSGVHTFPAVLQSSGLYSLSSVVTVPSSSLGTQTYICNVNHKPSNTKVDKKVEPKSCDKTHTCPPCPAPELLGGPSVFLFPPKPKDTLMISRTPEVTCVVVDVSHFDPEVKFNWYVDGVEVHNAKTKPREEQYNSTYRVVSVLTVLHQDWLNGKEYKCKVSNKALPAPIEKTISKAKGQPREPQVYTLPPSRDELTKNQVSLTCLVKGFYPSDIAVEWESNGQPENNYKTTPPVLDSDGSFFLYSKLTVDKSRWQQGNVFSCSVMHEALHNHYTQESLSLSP
light: B1 light
notes: homodimerized; also called Ho Ab E269_04F
B4: GpH7-B3 variant A330_11K/GpL16-k0 (antibody, human IgG1, kappa)
heavy: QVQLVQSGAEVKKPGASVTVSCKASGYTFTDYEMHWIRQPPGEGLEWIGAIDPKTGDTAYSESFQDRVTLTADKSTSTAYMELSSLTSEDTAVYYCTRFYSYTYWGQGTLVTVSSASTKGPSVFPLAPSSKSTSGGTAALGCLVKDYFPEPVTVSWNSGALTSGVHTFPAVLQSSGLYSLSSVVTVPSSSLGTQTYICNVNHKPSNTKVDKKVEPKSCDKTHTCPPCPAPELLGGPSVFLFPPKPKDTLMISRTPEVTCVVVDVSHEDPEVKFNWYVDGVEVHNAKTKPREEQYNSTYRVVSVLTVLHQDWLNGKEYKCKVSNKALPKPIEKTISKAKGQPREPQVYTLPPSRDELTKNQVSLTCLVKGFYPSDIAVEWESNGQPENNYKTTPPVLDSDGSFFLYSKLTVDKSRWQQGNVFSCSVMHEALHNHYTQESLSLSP
light: B1 light
notes: homodimerized; also called Ho Ab A330_11K
B5: GpH7-B3 variant E269_05P/GpL16-k0 (antibody, human IgG1, kappa)
heavy: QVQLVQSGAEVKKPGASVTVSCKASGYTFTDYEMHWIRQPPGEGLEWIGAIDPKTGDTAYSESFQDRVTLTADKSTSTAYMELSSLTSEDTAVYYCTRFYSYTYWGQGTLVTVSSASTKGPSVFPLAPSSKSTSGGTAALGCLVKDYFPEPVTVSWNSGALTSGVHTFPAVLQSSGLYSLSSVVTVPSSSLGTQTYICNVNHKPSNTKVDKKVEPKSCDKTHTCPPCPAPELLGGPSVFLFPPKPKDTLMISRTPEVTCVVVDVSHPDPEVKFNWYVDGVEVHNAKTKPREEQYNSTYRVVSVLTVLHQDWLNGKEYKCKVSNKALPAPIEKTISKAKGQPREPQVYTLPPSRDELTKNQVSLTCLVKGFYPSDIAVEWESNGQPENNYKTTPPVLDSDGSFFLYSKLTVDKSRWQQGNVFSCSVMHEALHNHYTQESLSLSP
light: B1 light
notes: homodimerized; also called Ho Ab E269_05P
B6: GpH7-B3 variant E269_13S/GpL16-k0 (antibody, human IgG1, kappa)
heavy: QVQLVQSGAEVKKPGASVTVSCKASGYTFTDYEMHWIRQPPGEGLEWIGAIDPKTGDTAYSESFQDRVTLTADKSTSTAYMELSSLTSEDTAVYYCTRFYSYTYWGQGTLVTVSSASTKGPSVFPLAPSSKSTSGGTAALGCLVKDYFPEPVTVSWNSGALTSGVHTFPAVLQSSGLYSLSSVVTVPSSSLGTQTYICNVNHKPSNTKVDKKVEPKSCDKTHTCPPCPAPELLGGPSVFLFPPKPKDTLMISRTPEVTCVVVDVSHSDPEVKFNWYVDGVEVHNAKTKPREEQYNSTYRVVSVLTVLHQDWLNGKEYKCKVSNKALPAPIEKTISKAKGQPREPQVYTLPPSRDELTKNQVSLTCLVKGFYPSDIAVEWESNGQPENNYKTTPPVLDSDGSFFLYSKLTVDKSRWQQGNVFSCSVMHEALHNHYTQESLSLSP
light: B1 light
notes: homodimerized; also called Ho Ab E269_13S
B7: GpH7-B3 variant A327_07I/GpL16-k0 (antibody, human IgG1, kappa)
heavy: not shown
light: B1 light
notes: homodimerized; also called Ho Ab A327_07I
B8: GpH7-B3 variant E269_09D/GpL16-k0 (antibody, human IgG1, kappa)
heavy: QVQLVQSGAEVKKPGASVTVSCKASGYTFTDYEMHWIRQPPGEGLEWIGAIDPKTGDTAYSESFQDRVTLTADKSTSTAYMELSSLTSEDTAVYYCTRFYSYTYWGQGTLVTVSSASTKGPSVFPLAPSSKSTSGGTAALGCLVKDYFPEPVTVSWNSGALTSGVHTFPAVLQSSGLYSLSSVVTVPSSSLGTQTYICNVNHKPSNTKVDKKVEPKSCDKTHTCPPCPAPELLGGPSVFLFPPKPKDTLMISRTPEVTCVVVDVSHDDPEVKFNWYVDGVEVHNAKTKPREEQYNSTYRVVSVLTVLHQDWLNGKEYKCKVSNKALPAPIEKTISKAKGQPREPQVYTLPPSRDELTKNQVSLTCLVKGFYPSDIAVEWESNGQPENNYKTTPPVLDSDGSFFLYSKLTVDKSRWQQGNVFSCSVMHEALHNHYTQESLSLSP
light: B1 light
notes: homodimerized; also called Ho Ab E269_09D
B9: GpH7-B3 variant E269_01G/GpL16-k0 (antibody, human IgG1, kappa)
heavy: not shown
light: B1 light
notes: homodimerized; also called Ho Ab E269_01G
B10: GpH7-B3 variant E269_18N/GpL16-k0 (antibody, human IgG1, kappa)
heavy: not shown
light: B1 light
notes: homodimerized; also called Ho Ab E269_18N
B11: GpH7-B3 variant E269_03V/GpL16-k0 (antibody, human IgG1, kappa)
heavy: not shown
light: B1 light
notes: homodimerized; also called Ho Ab E269_03V
B12: GpH7-B3 variant E269_02A/GpL16-k0 (antibody, human IgG1, kappa)
heavy: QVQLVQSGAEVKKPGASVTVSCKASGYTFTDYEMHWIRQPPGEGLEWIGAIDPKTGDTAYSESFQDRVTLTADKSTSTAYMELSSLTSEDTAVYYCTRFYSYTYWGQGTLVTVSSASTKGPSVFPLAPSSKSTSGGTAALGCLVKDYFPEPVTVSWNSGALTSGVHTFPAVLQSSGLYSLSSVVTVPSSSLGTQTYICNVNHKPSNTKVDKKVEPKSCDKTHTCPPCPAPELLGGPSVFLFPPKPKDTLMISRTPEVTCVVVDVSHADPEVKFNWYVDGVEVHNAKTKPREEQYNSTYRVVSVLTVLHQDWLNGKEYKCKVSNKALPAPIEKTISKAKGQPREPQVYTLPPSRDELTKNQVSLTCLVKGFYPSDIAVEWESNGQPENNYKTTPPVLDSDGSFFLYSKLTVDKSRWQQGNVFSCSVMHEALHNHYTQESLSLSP
light: B1 light
notes: homodimerized; also called Ho Ab E269_02A
B13: GpH7-B3 variant A327_03V/GpL16-k0 (antibody, human IgG1, kappa)
heavy: not shown
light: B1 light
notes: homodimerized; also called Ho Ab A327_03V
B14: GpH7-B3 variant A327_09D/GpL16-k0 (antibody, human IgG1, kappa)
heavy: not shown
light: B1 light
notes: homodimerized; also called Ho Ab A327_09D
B15: GpH7-B3 variant A327_13S/GpL16-k0 (antibody, human IgG1, kappa)
heavy: not shown
light: B1 light
notes: homodimerized; also called Ho Ab A327_13S
B16: GpH7-B3 variant E269_07I/GpL16-k0 (antibody, human IgG1, kappa)
heavy: not shown
light: B1 light
notes: homodimerized; also called Ho Ab E269_07I
B17: GpH7-B3 variant A327_10E/GpL16-k0 (antibody, human IgG1, kappa)
heavy: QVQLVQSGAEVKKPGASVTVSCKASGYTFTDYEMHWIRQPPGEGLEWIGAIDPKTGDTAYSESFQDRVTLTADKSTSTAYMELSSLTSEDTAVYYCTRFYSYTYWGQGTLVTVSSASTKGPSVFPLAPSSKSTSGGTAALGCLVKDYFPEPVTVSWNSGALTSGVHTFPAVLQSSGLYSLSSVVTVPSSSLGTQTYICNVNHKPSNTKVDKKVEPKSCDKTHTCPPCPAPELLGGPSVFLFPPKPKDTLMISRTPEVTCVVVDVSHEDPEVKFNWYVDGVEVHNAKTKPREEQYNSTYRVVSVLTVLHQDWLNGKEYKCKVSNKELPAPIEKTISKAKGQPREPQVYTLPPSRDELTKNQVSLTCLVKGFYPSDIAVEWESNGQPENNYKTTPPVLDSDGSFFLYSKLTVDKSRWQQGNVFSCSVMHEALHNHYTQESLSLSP
light: B1 light
notes: homodimerized; also called Ho Ab A327_10E
B18: GpH7-B3 variant A330_09D/GpL16-k0 (antibody, human IgG1, kappa)
heavy: not shown
light: B1 light
notes: homodimerized; also called Ho Ab A330_09D
B19: GpH7-B3 variant A330_05P/GpL16-k0 (antibody, human IgG1, kappa)
heavy: not shown
light: B1 light
notes: homodimerized; also called Ho Ab A330_05P
B20: GpH7-B3 variant E269_16H/GpL16-k0 (antibody, human IgG1, kappa)
heavy: not shown
light: B1 light
notes: homodimerized; also called Ho Ab E269_16H
B21: GpH7-B3 variant A327_06M/GpL16-k0 (antibody, human IgG1, kappa)
heavy: not shown
light: B1 light
notes: homodimerized; also called Ho Ab A327_06M
B22: GpH7-B3 variant E269_14T/GpL16-k0 (antibody, human IgG1, kappa)
heavy: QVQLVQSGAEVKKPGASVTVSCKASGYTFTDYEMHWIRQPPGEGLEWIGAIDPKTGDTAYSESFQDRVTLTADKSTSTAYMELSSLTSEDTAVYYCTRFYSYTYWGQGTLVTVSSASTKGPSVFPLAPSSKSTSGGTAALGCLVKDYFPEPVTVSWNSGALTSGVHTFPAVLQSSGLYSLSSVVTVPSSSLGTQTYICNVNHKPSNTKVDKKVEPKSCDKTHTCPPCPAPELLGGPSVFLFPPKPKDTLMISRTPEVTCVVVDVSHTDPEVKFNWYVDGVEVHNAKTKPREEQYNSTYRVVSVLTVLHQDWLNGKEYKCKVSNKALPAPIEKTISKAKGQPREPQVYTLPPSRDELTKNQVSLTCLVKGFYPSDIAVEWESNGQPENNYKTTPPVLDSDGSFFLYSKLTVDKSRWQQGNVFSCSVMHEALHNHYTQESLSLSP
light: B1 light
notes: homodimerized; also called Ho Ab E269_14T
B23: GpH7-B3 variant E269_08L/GpL16-k0 (antibody, human IgG1, kappa)
heavy: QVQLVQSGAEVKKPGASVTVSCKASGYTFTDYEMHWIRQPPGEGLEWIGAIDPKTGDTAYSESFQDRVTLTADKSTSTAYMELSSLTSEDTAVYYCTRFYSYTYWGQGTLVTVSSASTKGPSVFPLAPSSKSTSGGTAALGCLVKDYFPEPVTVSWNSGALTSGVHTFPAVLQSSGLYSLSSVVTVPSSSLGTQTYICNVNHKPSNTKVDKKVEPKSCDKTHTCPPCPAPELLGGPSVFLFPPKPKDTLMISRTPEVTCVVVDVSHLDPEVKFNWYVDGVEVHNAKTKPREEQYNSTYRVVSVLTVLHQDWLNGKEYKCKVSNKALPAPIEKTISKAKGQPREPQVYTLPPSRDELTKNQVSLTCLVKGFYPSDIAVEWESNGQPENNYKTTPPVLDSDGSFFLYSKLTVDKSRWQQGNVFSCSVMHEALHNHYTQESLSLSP
light: B1 light
notes: homodimerized; also called Ho Ab E269_08L
B24: GpH7-B3 variant E269_06M/GpL16-k0 (antibody, human IgG1, kappa)
heavy: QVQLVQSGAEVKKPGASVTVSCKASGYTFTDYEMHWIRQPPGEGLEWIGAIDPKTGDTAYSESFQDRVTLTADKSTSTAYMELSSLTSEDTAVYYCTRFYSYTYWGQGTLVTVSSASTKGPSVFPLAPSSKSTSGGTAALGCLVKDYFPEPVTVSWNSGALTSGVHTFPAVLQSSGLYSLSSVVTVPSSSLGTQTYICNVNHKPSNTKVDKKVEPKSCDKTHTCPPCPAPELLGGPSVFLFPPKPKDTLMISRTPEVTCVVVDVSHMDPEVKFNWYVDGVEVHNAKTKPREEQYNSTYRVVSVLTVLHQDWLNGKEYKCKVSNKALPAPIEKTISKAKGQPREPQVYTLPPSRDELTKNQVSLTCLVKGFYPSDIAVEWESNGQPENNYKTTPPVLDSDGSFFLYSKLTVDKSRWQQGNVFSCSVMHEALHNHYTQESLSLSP
light: B1 light
notes: homodimerized; also called Ho Ab E269_06M
B25: GpH7-B3 variant E269_15Y/GpL16-k0 (antibody, human IgG1, kappa)
heavy: not shown
light: B1 light
notes: homodimerized; also called Ho Ab E269_15Y
B26: GpH7-B3 variant A330_08L/GpL16-k0 (antibody, human IgG1, kappa)
heavy: not shown
light: B1 light
notes: homodimerized; also called Ho Ab A330_08L; GpH7-B3-20-08L/GpL16-k0
B27: GpH7-B3 variant A330_14T/GpL16-k0 (antibody, human IgG1, kappa)
heavy: not shown
light: B1 light
notes: homodimerized; also called Ho Ab A330_14T
B28: GpH7-B3 variant A330_16H/GpL16-k0 (antibody, human IgG1, kappa)
heavy: not shown
light: B1 light
notes: homodimerized; also called Ho Ab A330_16H
B29: GpH7-B3 variant E269_19Q/GpL16-k0 (antibody, human IgG1, kappa)
heavy: not shown
light: B1 light
notes: homodimerized; also called Ho Ab E269_19Q

These binders were tested against T1, FcγRIIa R (extracellular domain with a …) (assay: SPR Biacore, relative binding).

He/Con_2aR | Binder
106 % of GpH7-A5/GpH7-B3/GpL16-k0 (=100) | B1
110 % of GpH7-A5/GpH7-B3/GpL16-k0 (=100) | B2

Each binder was assayed against T2, FcγRIa (human, UniProt P12314 16-292) (assay: SPR; vs GpH7-B3/GpL16-k0=100).
T2 construct: extracellular domain; also called FcgRI; CD64
T2 sequence (P12314 16-292): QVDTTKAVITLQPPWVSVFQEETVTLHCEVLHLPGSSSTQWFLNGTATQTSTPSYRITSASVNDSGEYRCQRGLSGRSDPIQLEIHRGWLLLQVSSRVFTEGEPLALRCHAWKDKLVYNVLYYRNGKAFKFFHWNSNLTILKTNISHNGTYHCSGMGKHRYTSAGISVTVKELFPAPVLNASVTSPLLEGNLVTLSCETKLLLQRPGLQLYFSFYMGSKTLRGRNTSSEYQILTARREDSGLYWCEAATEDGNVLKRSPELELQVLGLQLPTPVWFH

Ho/Con_1a | Binder
102 % of control | B3
94.1 % of control | B4
95.7 % of control | B5
95.9 % of control | B6
95.5 % of control | B7
106 % of control | B8
97.4 % of control | B9
92.7 % of control | B10
95.4 % of control | B11
96.2 % of control | B12
94.4 % of control | B13
102 % of control | B14
86.1 % of control | B15
97.1 % of control | B16
98.8 % of control | B17
108 % of control | B18
84.4 % of control | B19
98.4 % of control | B20
93.1 % of control | B21
96.2 % of control | B22
101 % of control | B23
101 % of control | B24
100 % of control | B25
106 % of control | B26
105 % of control | B27
104 % of control | B28
99.6 % of control | B29
